# According to publication PMC3074162:
# T1: ParB 65-139 (RHH domain) (Leifsonia xyli subsp. cynodontis …, UniProt Q6EEF9 65-139)
# T1 sequence: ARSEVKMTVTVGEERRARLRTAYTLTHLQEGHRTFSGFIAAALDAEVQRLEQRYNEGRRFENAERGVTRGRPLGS
# B1: R4-18+3 (dsDNA)
# DNA 1: AAAGCCAGAAACAGTGGG
# DNA 2: CCCACTGTTTCTGGCTTT
# B2: R3-18-16T (dsDNA)
# DNA 1: GGAATAGGTGGAAAATCC
# DNA 2: GGATTTTCCACCTATTCC
# B3: R3-18-16C (dsDNA)
# DNA 1: GGAATAGGTGGAAAACCC
# DNA 2: GGGTTTTCCACCTATTCC
# B4: R3-18-17G (dsDNA)
# DNA 1: GGAATAGGTGGAAAAGGC
# DNA 2: GCCTTTTCCACCTATTCC
# B5: R4-18 (dsDNA)
# DNA 1: GGAAAAGCCAGAAACAGT
# DNA 2: ACTGTTTCTGGCTTTTCC
# B6: R4-18-1 (dsDNA)
# DNA 1: TGGAAAAGCCAGAAACAG
# DNA 2: CTGTTTCTGGCTTTTCCA
# B7: R3-18-15G (dsDNA)
# DNA 1: GGAATAGGTGGAAAGGCC
# DNA 2: GGCCTTTCCACCTATTCC
# B8: R9-18 (dsDNA)
# DNA 1: GGAATTGTTTGCTACGGT
# DNA 2: ACCGTAGCAAACAATTCC
# B9: R3-18-15T (dsDNA)
# DNA 1: GGAATAGGTGGAAATGCC
# DNA 2: GGCATTTCCACCTATTCC
# B10: R4-14 (dsDNA)
# DNA 1: AAAAGCCAGAAACA
# DNA 2: TGTTTCTGGCTTTT
# B11: R3-18-15C (dsDNA)
# DNA 1: GGAATAGGTGGAAACGCC
# DNA 2: GGCGTTTCCACCTATTCC
# B12: R3-18-10A (dsDNA)
# DNA 1: GGAATAGGTAGAAAAGCC
# DNA 2: GGCTTTTCTACCTATTCC
# B13: R3-18-17T (dsDNA)
# DNA 1: GGAATAGGTGGAAAAGTC
# DNA 2: GACTTTTCCACCTATTCC
# B14: R4-18-2 (dsDNA)
# DNA 1: GTGGAAAAGCCAGAAACA
# DNA 2: TGTTTCTGGCTTTTCCAC
# B15: R3-18-17A (dsDNA)
# DNA 1: GGAATAGGTGGAAAAGAC
# DNA 2: GTCTTTTCCACCTATTCC
# B16: R4-18+1 (dsDNA)
# DNA 1: GAAAAGCCAGAAACAGTG
# DNA 2: CACTGTTTCTGGCTTTTC
# B17: R3-18-18T (dsDNA)
# DNA 1: GGAATAGGTGGAAAAGCT
# DNA 2: AGCTTTTCCACCTATTCC
# B18: R3-18 (dsDNA)
# DNA 1: GGAATAGGTGGAAAAGCC
# DNA 2: GGCTTTTCCACCTATTCC
# B19: 2R6'-27 (dsDNA)
# DNA 1: GGGTAAGATGGGTAAGATGGGTAAGAT
# DNA 2: ATCTTACCCATCTTACCCATCTTACCC
# B20: R0-18 (dsDNA)
# DNA 1: TGCTCGATCTGGCTATCC
# DNA 2: GGATAGCCAGATCGAGCA
# B21: 1R3'-18 (dsDNA)
# DNA 1: GGAAAAGGTGGAAAAGGT
# DNA 2: ACCTTTTCCACCTTTTCC
# B22: R4-18-3 (dsDNA)
# DNA 1: GGTGGAAAAGCCAGAAAC
# DNA 2: GTTTCTGGCTTTTCCACC
# B23: R10-18 (dsDNA)
# DNA 1: TGCTACGGTAGAACACGC
# DNA 2: GCGTGTTCTACCGTAGCA
# B24: R8-18 (dsDNA)
# DNA 1: GGAAAAGCTGGAATTGTT
# DNA 2: AACAATTCCAGCTTTTCC
# B25: 2R3'-27 (dsDNA)
# DNA 1: GGAAAAGGTGGAAAAGGTGGAAAAGGT
# DNA 2: ACCTTTTCCACCTTTTCCACCTTTTCC
# B26: R3-18-18G (dsDNA)
# DNA 1: GGAATAGGTGGAAAAGCG
# DNA 2: CGCTTTTCCACCTATTCC
# B27: R3-18-16A (dsDNA)
# DNA 1: GGAATAGGTGGAAAAACC
# DNA 2: GGTTTTTCCACCTATTCC
# B28: 1R6'-18 (dsDNA)
# DNA 1: GGGTAAGATGGGTAAGAT
# DNA 2: ATCTTACCCATCTTACCC
# B29: R3-18-18A (dsDNA)
# DNA 1: GGAATAGGTGGAAAAGCA
# DNA 2: TGCTTTTCCACCTATTCC
# B30: R4-18+4 (dsDNA)
# DNA 1: AAGCCAGAAACAGTGGGA
# DNA 2: TCCCACTGTTTCTGGCTT
# B31: R11-18 (dsDNA)
# DNA 1: AGAACACGCCGAACGGCC
# DNA 2: GGCCGTTCGGCGTGTTCT
# How the values were obtained:
# [1] = target: ParB 65–139 (C-terminal DNA-binding RHH domain of pCXC100 ParB) (Leifsonia xyli subsp. cynodontis (plasmid pCXC100)) (UniProt Q6ABV9); test: crystal structure
# [2] = target: T1, ParB 65-139 (RHH domain); test: EMSA
# [3] = target: T1, ParB 65-139 (RHH domain); test: ITC
# [4] = target: T1, ParB 65-139 (RHH domain); test: ITC; remark: listed apart in the source
# [5] = target: T1, ParB 65-139 (RHH domain); test: ITC; remark: listed apart in the source
# [6] = target: T1, ParB 65-139 (RHH domain); test: EMSA; remark: listed apart in the source
# [7] = target: T1, ParB 65-139 (RHH domain); test: ITC; remark: listed apart in the source
# [8] = target: T1, ParB 65-139 (RHH domain); test: ITC; remark: listed apart in the source
# [9] = target: T1, ParB 65-139 (RHH domain); test: ITC; remark: listed apart in the source
# [10] = target: T1, ParB 65-139 (RHH domain); test: EMSA; remark: listed apart in the source
# [11] = target: T1, ParB 65-139 (RHH domain); test: ITC; remark: listed apart in the source
# [12] = target: T1, ParB 65-139 (RHH domain); test: EMSA; remark: listed apart in the source
# [13] = target: T1, ParB 65-139 (RHH domain); test: EMSA; remark: listed apart in the source
molecule,measurement,setting,value
ParB 65–139 (C-terminal DNA-binding RHH domain of pCXC100 ParB) (from UniProt Q6ABV9 65-139) (domain or fragment),stoichiometry N,[1],2
B1,binding result,[2],binds
B2,Kd,[3],16 ± 6 nM
B3,Kd,[3],20 ± 7 nM
B4,Kd,[3],35 ± 11 nM
B5,Kd,[4],87 ± 59 nM
same,Kd,[5],60 ± 12 nM
B6,binding result,[6],binds
B7,Kd,[3],88 ± 12 nM
B8,Kd,[7],17 ± 6 nM
same,Kd,[4],11 ± 9 nM
B9,Kd,[3],30 ± 6 nM
B10,binding result,[3],no binding
B11,Kd,[3],81 ± 8 nM
B12,Kd,[8],30 ± 10 nM
B13,Kd,[3],30 ± 8 nM
B14,binding result,[2],binds
B15,Kd,[3],84 ± 13 nM
B16,binding result,[6],binds
B17,Kd,[3],32 ± 6 nM
B18,Kd,[4],31 ± 12 nM
same,Kd,[5],37 ± 10 nM
same,Kd,[9],30 ± 10 nM
B19,Kd,[10],877 nM
B20,binding result,[11],no binding
B21,binding result,[12],binds
B22,binding result,[2],binds
B23,binding result,[11],no binding
B24,Kd,[3],56 ± 12 nM
B25,Kd,[13],112 nM
B26,Kd,[3],70 ± 17 nM
B27,Kd,[3],22 ± 9 nM
B28,binding result,[12],binds
B29,Kd,[3],46 ± 10 nM
B30,binding result,[2],binds
B31,binding result,[11],no binding
